# The Immune Epitope Database (IEDB)
# Target: HLA-A*02:01
# Test: IEDB peptide-MHC binding, purified MHC/competitive/fluorescence; ≥ and ≤ were set here for values at or beyond the usual limits of such assays
# Conditions: source organism: Homo sapiens
row,IC50 [nM],Sequence
1,2300,YLVCGERGFF
2,8590,YLVCGERGFFY
3,≥ 90200,ALYLVCGER
4,59400,SHLVEALYL
5,≥ 100000,ALYLVCGERG
6,190,HLVEALYLVCG
7,3730,GSHLVEALYLV
8,440,HLCGSHLVEAL
9,1750,HLVEALYLVC
10,2260,ALYLVCGERGF
